Assays:
[1] = target: T1, human LCAT-like protein/FLAG fusion protein (Homo sapiens, UniProt Q8NCC3); assay: Influence of DFP and DTNB on esterase activity assayed with PNPB; type: biochemical; details: inhibitor pre-incubated 25° C. for 1 hour before substrate; PNPB 500 μM; fusion protein 3.4 μg/ml; FIG. 18
T1 construct: made in house; host or cells: baculovirus (Bac-To-Bac); secreted into the culture supernatant
T1 sequence (Q8NCC3 34-412): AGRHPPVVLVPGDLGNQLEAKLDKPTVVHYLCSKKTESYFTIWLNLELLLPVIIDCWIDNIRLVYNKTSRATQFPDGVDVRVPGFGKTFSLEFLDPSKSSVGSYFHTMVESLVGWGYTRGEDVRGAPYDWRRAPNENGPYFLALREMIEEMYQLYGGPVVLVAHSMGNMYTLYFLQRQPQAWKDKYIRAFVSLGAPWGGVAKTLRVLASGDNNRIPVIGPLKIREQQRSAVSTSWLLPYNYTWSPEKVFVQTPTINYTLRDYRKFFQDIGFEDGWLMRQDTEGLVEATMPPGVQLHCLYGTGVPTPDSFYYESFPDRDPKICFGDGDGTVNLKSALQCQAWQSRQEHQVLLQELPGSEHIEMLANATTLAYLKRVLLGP

[2] = Esterase activity assay using the fatty acid ester p-nitrophenyl butyrate (PNPB); type: biochemical
Experimental: Assays were carried out in accordance with the method of Bonelli, F. S. and Jonas, A. [Journal of Biological Chemistry, 264, 14723–14728, 1989]. Thus, to the reaction buffer (10 mM Tris, pH 7.4, 150 mM NaCl, 0.01% EDTA, 1 mM NaN3) was added a graded solution of p-nitrophenyl butyrate (PNPB) in acetonitrile (final concentration:5 mM–50 μM) as the substrate. Then, the human LCAT-like protein/FLAG fusion protein obtained in Example 9 was added (final concentration:3.4 μg/ml) to make 1 ml. The mixture was incubated at 37° C. for 20 minutes and the absorbance at 400 nm was measured at 2-minute intervals. From the percent changes in absorbance at the respective substrate concentrations, initial velocity was calculated, and according to the Lineweaver-Burk method, Vmax and Km were calculated (FIG. 16). […] Using 50 μl of the semi-purified enzyme solution of fractions 6 and 7 (4 ml) obtained in Example 12 (FIG. 14), a similar activity assay was carried out at a substrate concentration of 100 μM.

[3] = PNPB 5 mM–50 μM, protein 3.4 μg/ml, 37° C., compared with human plasma LCAT, FIG. 16

## O=C(O)c1cc(SSc2ccc([N+](=O)[O-])c(C(=O)O)c2)ccc1[N+](=O)[O-] [DTNB, 5,5′-dithiobis(2-nitrobenzoic acid)]
[1]
  inhibition of esterase activity: inhibited

B1: human LCAT-like protein/FLAG fusion protein: human LCAT-like protein with FLAG peptide fused at C-terminus, expressed in insect cells, purified on anti-FLAG M2 affinity column (protein)
chain: AGRHPPVVLVPGDLGNQLEAKLDKPTVVHYLCSKKTESYFTIWLNLELLLPVIIDCWIDNIRLVYNKTSRATQFPDGVDVRVPGFGKTFSLEFLDPSKSSVGSYFHTMVESLVGWGYTRGEDVRGAPYDWRRAPNENGPYFLALREMIEEMYQLYGGPVVLVAHSMGNMYTLYFLQRQPQAWKDKYIRAFVSLGAPWGGVAKTLRVLASGDNNRIPVIGPLKIREQQRSAVSTSWLLPYNYTWSPEKVFVQTPTINYTLRDYRKFFQDIGFEDGWLMRQDTEGLVEATMPPGVQLHCLYGTGVPTPDSFYYESFPDRDPKICFGDGDGTVNLKSALQCQAWQSRQEHQVLLQELPGSEHIEMLANATTLAYLKRVLLGP
modifications: left off: small tags and cut ends
[2]; [3]
  Km (Lineweaver-Burk): agreed with the values of human plasma LCAT on an order basis
  Vmax (Lineweaver-Burk): agreed with the values of human plasma LCAT on an order basis

B2: human LCAT-like protein: recombinant human LCAT-like protein expressed in High Five insect cells, semi-purified on Phenyl-Sepharose HP (fractions 6 and 7) (protein, UniProt Q8NCC3 34-412, looked up)
Lysosomal phospholipase A and …: AGRHPPVVLVPGDLGNQLEAKLDKPTVVHYLCSKKTESYFTIWLNLELLLPVIIDCWIDNIRLVYNKTSRATQFPDGVDVRVPGFGKTFSLEFLDPSKSSVGSYFHTMVESLVGWGYTRGEDVRGAPYDWRRAPNENGPYFLALREMIEEMYQLYGGPVVLVAHSMGNMYTLYFLQRQPQAWKDKYIRAFVSLGAPWGGVAKTLRVLASGDNNRIPVIGPLKIREQQRSAVSTSWLLPYNYTWSPEKVFVQTPTINYTLRDYRKFFQDIGFEDGWLMRQDTEGLVEATMPPGVQLHCLYGTGVPTPDSFYYESFPDRDPKICFGDGDGTVNLKSALQCQAWQSRQEHQVLLQELPGSEHIEMLANATTLAYLKRVLLGP
[2]; 50 μl semi-purified enzyme solution of fractions 6 and 7 of Example 12, PNPB 100 μM, FIG. 17
  esterase activity: confirmed to have esterase activity

Source: US7157259B2, “Murine lecithin-cholesterol acyltransferase protein” (Takeda Pharmaceutical Company Limited, priority 1997, dated 2007)
